Results published in IntAct's records for PubMed 19666485.

B1: Chromodomain-helicase-DNA-binding protein 1-like (Homo sapiens), Q86WJ1-1 (parent)
chain: MERAGATSRGGQAPGFLLRLHTEGRAEAARVQEQDLRQWGLTGIHLRSYQLEGVNWLAQRFHCQNGCILGDEMGLGKTCQTIALFIYLAGRLNDEGPFLILCPLSVLSNWKEEMQRFAPGLSCVTYAGDKEERACLQQDLKQESRFHVLLTTYEICLKDASFLKSFPWSVLVVDEAHRLKNQSSLLHKTLSEFSVVFSLLLTGTPIQNSLQELYSLLSFVEPDLFSKEEVGDFIQRYQDIEKESESASELHKLLQPFLLRRVKAEVATELPKKTEVVIYHGMSALQKKYYKAILMKDLDAFENETAKKVKLQNILSQLRKCVDHPYLFDGVEPEPFEVGDHLTEASGKLHLLDKLLAFLYSGGHRVLLFSQMTQMLDILQDYMDYRGYSYERVDGSVRGEERHLAIKNFGQQPIFVFLLSTRAGGVGMNLTAADTVIFVDSDFNPQNDLQAAARAHRIGQNKSVKVIRLIGRDTVEEIVYRKAASKLQLTNMIIEGGHFTLGAQKPAADADLQLSEILKFGLDKLLASEGSTMDEIDLESILGETKDGQWVSDALPAAEGGSRDQEEGKNHMYLFEGKDYSKEPSKEDRKSFEQLVNLQKTLLEKASQEGRSLRNKGSVLIPGLVEGSTKRKRVLSPEELEDRQKKRQEAAAKRRRLIEEKKRQKEEAEHKKKMAWWESNNYQSFCLPSEESEPEDLENGEESSAELDYQDPDATSLKYVSGDVTHPQAGAEDALIVHCVDDSGHWGRGGLFTALEKRSAEPRKIYELAGKMKDLSLGGVLLFPVDDKESRNKGQDLLALIVAQHRDRSNVLSGIKMAALEEGLKKIFLAAKKKKASVHLPRIGHATKGFNWYGTERLIRKHLAARGIPTYIYYFPRSKSAVLHSQSSSSSSRQLVP

Variants of: B1
Conditions: with parp1_human PARP1, P09874
Chain of parp1_human PARP1, P09874 (P09874 whole entry): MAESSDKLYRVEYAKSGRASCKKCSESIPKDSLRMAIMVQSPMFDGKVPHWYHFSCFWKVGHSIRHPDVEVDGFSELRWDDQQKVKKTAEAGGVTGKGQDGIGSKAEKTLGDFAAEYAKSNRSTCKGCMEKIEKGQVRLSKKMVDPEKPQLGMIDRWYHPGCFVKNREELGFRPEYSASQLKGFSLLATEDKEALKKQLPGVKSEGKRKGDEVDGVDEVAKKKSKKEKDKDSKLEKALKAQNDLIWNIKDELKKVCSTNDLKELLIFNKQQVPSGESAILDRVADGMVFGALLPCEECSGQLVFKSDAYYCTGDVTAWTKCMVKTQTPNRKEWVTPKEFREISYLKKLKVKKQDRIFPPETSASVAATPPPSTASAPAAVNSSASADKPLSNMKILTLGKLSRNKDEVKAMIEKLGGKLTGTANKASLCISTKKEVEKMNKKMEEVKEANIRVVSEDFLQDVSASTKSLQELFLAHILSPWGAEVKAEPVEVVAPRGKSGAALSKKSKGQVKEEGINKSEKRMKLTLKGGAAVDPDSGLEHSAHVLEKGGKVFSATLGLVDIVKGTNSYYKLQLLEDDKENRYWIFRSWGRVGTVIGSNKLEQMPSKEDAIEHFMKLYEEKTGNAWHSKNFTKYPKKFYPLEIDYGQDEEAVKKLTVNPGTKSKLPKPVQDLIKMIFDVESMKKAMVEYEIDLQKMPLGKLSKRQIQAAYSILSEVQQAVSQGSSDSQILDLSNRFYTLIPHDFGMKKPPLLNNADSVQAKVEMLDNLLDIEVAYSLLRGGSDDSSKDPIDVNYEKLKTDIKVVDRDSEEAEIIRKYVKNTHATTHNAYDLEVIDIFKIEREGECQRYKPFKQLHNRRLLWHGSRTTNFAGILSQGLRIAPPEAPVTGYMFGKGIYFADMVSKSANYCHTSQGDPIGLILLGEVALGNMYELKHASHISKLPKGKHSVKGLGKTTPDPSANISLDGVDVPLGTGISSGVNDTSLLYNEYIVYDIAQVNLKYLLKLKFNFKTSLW

With D723A as the variant, how does the “effect of a mutation on the interaction” value read?
Its value is “disrupting interaction”.

How did the “effect of a mutation on the interaction” value turn out when E175Q was run?
The value was “disrupting interaction”.
